The record followed here is US20050004353A1 (Amgen, published 2005).

Where a chain is given by its changes, count along the chain named. Where “and” joins values, the source holds several entries; their conditions need not be identical. Equal entries are not always repeated.

Assay [1] concerns the target T1, human interferon-gamma (IFN-γ) (human, UniProt P01579 24-161).
T1 sequence (looked up): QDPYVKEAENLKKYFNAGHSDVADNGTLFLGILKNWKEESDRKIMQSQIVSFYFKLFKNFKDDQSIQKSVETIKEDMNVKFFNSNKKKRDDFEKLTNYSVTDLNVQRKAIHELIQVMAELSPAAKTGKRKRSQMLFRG
The assay is described as follows: cell-based or functional assay.

Assay [2] has as its target T1, human interferon-gamma (IFN-γ). The assay is described as follows: ELISA on plates coated with recombinant IFN-γ, antibody purified from hybridoma supernatant.
The target is the same in assay [3]. Kind of assay: equilibrium-binding assay in solution, free antibody captured on IFN-γ coupled beads, KinExA. The method, then: Binding kinetics for several of the antibodies to IFN-γ were measured by BIAcore analysis. […] Accordingly, an equilibrium-binding assay was developed and used. A fixed amount of antibody was incubated with various concentrations of IFN-γ for greater than 5 hours in order to reach equilibrium and then contacted with IFN-γ coupled beads for a very brief time, and the amount of free antibody that bound to the beads was measured in a KINEXA™ machine (Sapidyne Instruments Inc., Boise, Id.), a fluorescence based immunoassay instrument. The lowest equilibrium dissociation constant obtained, ˜24 pM, was with the 1119 antibody.

The target of a further assay is T2, huIFN-γR34 (human, UniProt P01579 24-161).
T2 sequence (looked up): T1 sequence (looked up) with K34R
The assay is described as follows: cell-based or functional assay.

In another assay the target is T3, huIFN-γR65 (human, UniProt P01579 24-161).
T3 sequence (looked up): T1 sequence (looked up) with S65R
The assay is described as follows: cell-based or functional assay.

A further assay concerns the target T4, huIFN-γV110 (human, UniProt P01579 24-161).
T4 sequence (looked up): T1 sequence (looked up) with I110V
Kind of assay: cell-based or functional assay.

For the next assay, the target named is T5, huIFN-γI126 (human, UniProt P01579 24-161).
T5 sequence (looked up): T1 sequence (looked up) with T126I
Kind of assay: cell-based or functional assay.

The next assay concerns the target T6, huIFN-γI77 (human, UniProt P01579 24-161).
T6 sequence (looked up): T1 sequence (looked up) with M77I
Kind of assay: cell-based or functional assay.

For a further assay, the target named is T7, huIFN-γD31 (human, UniProt P01579 24-161).
T7 sequence (looked up): T1 sequence (looked up) with G31D
The assay is described as follows: cell-based or functional assay.

The target in another assay is T8, huIFN-γP20 (human, UniProt P01579 24-161).
T8 sequence (looked up): T1 sequence (looked up) with S20P
Kind of assay: cell-based or functional assay.

The next assay addresses T9, huIFN-γD19 (human, UniProt P01579 24-161).
T9 sequence (looked up): T1 sequence (looked up) with H19D
The assay is described as follows: cell-based or functional assay.

The target in the next assay is T10, huIFN-γS103 (human, UniProt P01579 24-161).
T10 sequence (looked up): T1 sequence (looked up) with L103S
The assay is described as follows: cell-based or functional assay.

Another assay deals with T11, cynomolgus monkey IFN-γ (cynomolgus monkey, UniProt P63309 24-165).
T11 sequence (looked up): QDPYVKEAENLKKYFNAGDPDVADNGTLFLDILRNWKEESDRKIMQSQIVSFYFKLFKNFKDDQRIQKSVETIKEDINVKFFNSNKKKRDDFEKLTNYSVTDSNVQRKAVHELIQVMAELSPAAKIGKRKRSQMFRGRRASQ
Kind of assay: cell-based or functional assay.

B1: 1121 anti-IFN-γ antibody (antibody, V domains shown)
VH: EVQLVQSGAEVKKPGESLKISCKGSGYNFTSYWIGWVRQMPGKGLEWMGIIYPGDSDTRYSPSFQGQVTISADKSISTAYLQWSSLKASDTAMYYCGSGSYWYFDLWGRGTLVTVSS
VL: EIVLTQSPGTLSLSPGERATLSCRASQSVSSSYLAWYQQKPGQAPRLLIYGASSRATGIPDRFSGSGSGTDFTLTISRLEPEDFAVYYCQRSGGSSFTFGPGTKVDIKR
In the case of B1, in assay [1], the “IC50, A549 bioassay (inhibition of the anti-proliferative effect of IFN-γ, 30 pM IFN-γ)” value stood at 46 pM and the “IC50, THP-1/HLA DR bioassay (21 pM IFN-γ)” value (“IC50, THP-1/HLA DR bioassay” for short) is 60 pM.

B2: 1121* anti-IFN-γ antibody (antibody, human IgG1, kappa, V domains shown)
VH: B1 VH
VL: EIVLTQSPGTLSLSPGERATLSCRASQSIISSYLAWYQQKPGQTPRLLIYGVSSRATGIPDRFSGSGSGTDFTLTITRLEPEDFAVYYCQQYGNSFMYTFGQGTKLEIKR
notes: the ELISA used antibody purified from hybridoma supernatant
B2: the binding result in assay [2] is recorded as “binds”.

B3: 1119 anti-IFN-γ antibody (antibody, human IgG1, kappa, V domains shown)
VH: B1 VH with W47L, W102F
VL: B1 VL
notes: also called 1119 antibody; 1119 mAb
For B3, the dissociation constant Kd in [3] is approximately 24 pM. The “% Neutralization by 1119 (A549 bioassay)” value with huIFN-γR34 turned out to be 109%; in the assay with huIFN-γR65, 109%; with huIFN-γV110, 103%; with huIFN-γI126, 109%; in the assay with huIFN-γI77, 108%; with huIFN-γD31, 103%. In addition, the “% Neutralization by 1119 (A549 bioassay)” value with huIFN-γP20 amounted to 0%; with huIFN-γD19, 0%; in the assay with huIFN-γS103, 102%; with cynomolgus monkey IFN-γ, 0%. Besides, the “IC50, A549 bioassay (inhibition of the anti-proliferative effect of IFN-γ, 30 pM IFN-γ)” value in [1] worked out at 14 pM. Further, in [1], the “IC50, THP-1/HLA DR bioassay” value amounted to 14 pM. For the same molecule, the “IC50, human whole blood bioassay (IFN-γ-induced IP-10 production), one of two donors” value in [1] was 17 pM and 14 pM.

B4: 1118 anti-IFN-γ antibody (antibody, V domains shown)
VH: B1 VH with N28S
VL: B1 VL with Y33S
Consider B4, for which, in assay [1], the “IC50, A549 bioassay (inhibition of the anti-proliferative effect of IFN-γ, 30 pM IFN-γ)” value amounted to 97 pM and the “IC50, THP-1/HLA DR bioassay” value is 86 pM.
